{
  "source": "patent US20260015399A1",
  "about": "(Boehringer Ingelheim, published 2026)",
  "binders": {"B1": {"name": "Compound 145 (peptide)", "peptide": "Isovaleryl-APAK([Ahx-γGlu-C18 diacid])PEEDASPEELQRYYVSLRHYYNWLTRQRY-NH2", "SMILES": "CC(C)CC(=O)N[C@@H](C)C(=O)N1CCC[C@H]1C(=O)N[C@@H](C)C(=O)N[C@@H](CCCCNC(=O)CCCCCNC(=O)CC[C@H](NC(=O)CCCCCCCCCCCCCCCCC(=O)O)C(=O)O)C(=O)N1CCC[C@H]1C(=O)N[C@@H](CCC(=O)O)C(=O)N[C@@H](CCC(=O)O)C(=O)N[C@@H](CC(=O)O)C(=O)N[C@@H](C)C(=O)N[C@@H](CO)C(=O)N1CCC[C@H]1C(=O)N[C@@H](CCC(=O)O)C(=O)N[C@@H](CCC(=O)O)C(=O)N[C@@H](CC(C)C)C(=O)N[C@@H](CCC(N)=O)C(=O)N[C@@H](CCCNC(=N)N)C(=O)N[C@@H](Cc1ccc(O)cc1)C(=O)N[C@@H](Cc1ccc(O)cc1)C(=O)N[C@H](C(=O)N[C@@H](CO)C(=O)N[C@@H](CC(C)C)C(=O)N[C@@H](CCCNC(=N)N)C(=O)N[C@@H](Cc1c[nH]cn1)C(=O)N[C@@H](Cc1ccc(O)cc1)C(=O)N[C@@H](Cc1ccc(O)cc1)C(=O)N[C@@H](CC(N)=O)C(=O)N[C@@H](Cc1c[nH]c2ccccc12)C(=O)N[C@@H](CC(C)C)C(=O)N[C@H](C(=O)N[C@@H](CCCNC(=N)N)C(=O)N[C@@H](CCC(N)=O)C(=O)N[C@@H](CCCNC(=N)N)C(=O)N[C@@H](Cc1ccc(O)cc1)C(N)=O)[C@@H](C)O)C(C)C"}, "B2": {"name": "Compound 183 (peptide)", "peptide": "Isovaleryl-APEK([Ahx-γGlu-C18 diacid])AEEDASPEEIQRYYVSLRHYYNWLTRQRY-NH2", "SMILES": "CC[C@H](C)[C@H](NC(=O)[C@H](CCC(=O)O)NC(=O)[C@H](CCC(=O)O)NC(=O)[C@@H]1CCCN1C(=O)[C@H](CO)NC(=O)[C@H](C)NC(=O)[C@H](CC(=O)O)NC(=O)[C@H](CCC(=O)O)NC(=O)[C@H](CCC(=O)O)NC(=O)[C@H](C)NC(=O)[C@H](CCCCNC(=O)CCCCCNC(=O)CC[C@H](NC(=O)CCCCCCCCCCCCCCCCC(=O)O)C(=O)O)NC(=O)[C@H](CCC(=O)O)NC(=O)[C@@H]1CCCN1C(=O)[C@H](C)NC(=O)CC(C)C)C(=O)N[C@@H](CCC(N)=O)C(=O)N[C@@H](CCCNC(=N)N)C(=O)N[C@@H](Cc1ccc(O)cc1)C(=O)N[C@@H](Cc1ccc(O)cc1)C(=O)N[C@H](C(=O)N[C@@H](CO)C(=O)N[C@@H](CC(C)C)C(=O)N[C@@H](CCCNC(=N)N)C(=O)N[C@@H](Cc1c[nH]cn1)C(=O)N[C@@H](Cc1ccc(O)cc1)C(=O)N[C@@H](Cc1ccc(O)cc1)C(=O)N[C@@H](CC(N)=O)C(=O)N[C@@H](Cc1c[nH]c2ccccc12)C(=O)N[C@@H](CC(C)C)C(=O)N[C@H](C(=O)N[C@@H](CCCNC(=N)N)C(=O)N[C@@H](CCC(N)=O)C(=O)N[C@@H](CCCNC(=N)N)C(=O)N[C@@H](Cc1ccc(O)cc1)C(N)=O)[C@@H](C)O)C(C)C"}, "B3": {"name": "Compound 147 (peptide)", "peptide": "Isovaleryl-APEK([Ahx-γGlu-C18 diacid])PEEDASPEEIQRYYVSLRHYYNWLTRQRY-NH2", "SMILES": "CC[C@H](C)[C@H](NC(=O)[C@H](CCC(=O)O)NC(=O)[C@H](CCC(=O)O)NC(=O)[C@@H]1CCCN1C(=O)[C@H](CO)NC(=O)[C@H](C)NC(=O)[C@H](CC(=O)O)NC(=O)[C@H](CCC(=O)O)NC(=O)[C@H](CCC(=O)O)NC(=O)[C@@H]1CCCN1C(=O)[C@H](CCCCNC(=O)CCCCCNC(=O)CC[C@H](NC(=O)CCCCCCCCCCCCCCCCC(=O)O)C(=O)O)NC(=O)[C@H](CCC(=O)O)NC(=O)[C@@H]1CCCN1C(=O)[C@H](C)NC(=O)CC(C)C)C(=O)N[C@@H](CCC(N)=O)C(=O)N[C@@H](CCCNC(=N)N)C(=O)N[C@@H](Cc1ccc(O)cc1)C(=O)N[C@@H](Cc1ccc(O)cc1)C(=O)N[C@H](C(=O)N[C@@H](CO)C(=O)N[C@@H](CC(C)C)C(=O)N[C@@H](CCCNC(=N)N)C(=O)N[C@@H](Cc1c[nH]cn1)C(=O)N[C@@H](Cc1ccc(O)cc1)C(=O)N[C@@H](Cc1ccc(O)cc1)C(=O)N[C@@H](CC(N)=O)C(=O)N[C@@H](Cc1c[nH]c2ccccc12)C(=O)N[C@@H](CC(C)C)C(=O)N[C@H](C(=O)N[C@@H](CCCNC(=N)N)C(=O)N[C@@H](CCC(N)=O)C(=O)N[C@@H](CCCNC(=N)N)C(=O)N[C@@H](Cc1ccc(O)cc1)C(N)=O)[C@@H](C)O)C(C)C"}, "B4": {"name": "Compound 146 (peptide)", "peptide": "Isovaleryl-APEK([Ahx-γGlu-C18 diacid])PEEEATPEELQRYYVSLRHYYNWLTRQRY-NH2", "SMILES": "CC(C)CC(=O)N[C@@H](C)C(=O)N1CCC[C@H]1C(=O)N[C@@H](CCC(=O)O)C(=O)N[C@@H](CCCCNC(=O)CCCCCNC(=O)CC[C@H](NC(=O)CCCCCCCCCCCCCCCCC(=O)O)C(=O)O)C(=O)N1CCC[C@H]1C(=O)N[C@@H](CCC(=O)O)C(=O)N[C@@H](CCC(=O)O)C(=O)N[C@@H](CCC(=O)O)C(=O)N[C@@H](C)C(=O)N[C@H](C(=O)N1CCC[C@H]1C(=O)N[C@@H](CCC(=O)O)C(=O)N[C@@H](CCC(=O)O)C(=O)N[C@@H](CC(C)C)C(=O)N[C@@H](CCC(N)=O)C(=O)N[C@@H](CCCNC(=N)N)C(=O)N[C@@H](Cc1ccc(O)cc1)C(=O)N[C@@H](Cc1ccc(O)cc1)C(=O)N[C@H](C(=O)N[C@@H](CO)C(=O)N[C@@H](CC(C)C)C(=O)N[C@@H](CCCNC(=N)N)C(=O)N[C@@H](Cc1c[nH]cn1)C(=O)N[C@@H](Cc1ccc(O)cc1)C(=O)N[C@@H](Cc1ccc(O)cc1)C(=O)N[C@@H](CC(N)=O)C(=O)N[C@@H](Cc1c[nH]c2ccccc12)C(=O)N[C@@H](CC(C)C)C(=O)N[C@H](C(=O)N[C@@H](CCCNC(=N)N)C(=O)N[C@@H](CCC(N)=O)C(=O)N[C@@H](CCCNC(=N)N)C(=O)N[C@@H](Cc1ccc(O)cc1)C(N)=O)[C@@H](C)O)C(C)C)[C@@H](C)O"}, "B5": {"name": "Compound 172 (peptide)", "peptide": "Isovaleryl-APEK([Ahx-γGlu-C18 diacid])PPEDASPEEIQRYYVSLRHYYNWLTRQRY-NH2", "SMILES": "CC[C@H](C)[C@H](NC(=O)[C@H](CCC(=O)O)NC(=O)[C@H](CCC(=O)O)NC(=O)[C@@H]1CCCN1C(=O)[C@H](CO)NC(=O)[C@H](C)NC(=O)[C@H](CC(=O)O)NC(=O)[C@H](CCC(=O)O)NC(=O)[C@@H]1CCCN1C(=O)[C@@H]1CCCN1C(=O)[C@H](CCCCNC(=O)CCCCCNC(=O)CC[C@H](NC(=O)CCCCCCCCCCCCCCCCC(=O)O)C(=O)O)NC(=O)[C@H](CCC(=O)O)NC(=O)[C@@H]1CCCN1C(=O)[C@H](C)NC(=O)CC(C)C)C(=O)N[C@@H](CCC(N)=O)C(=O)N[C@@H](CCCNC(=N)N)C(=O)N[C@@H](Cc1ccc(O)cc1)C(=O)N[C@@H](Cc1ccc(O)cc1)C(=O)N[C@H](C(=O)N[C@@H](CO)C(=O)N[C@@H](CC(C)C)C(=O)N[C@@H](CCCNC(=N)N)C(=O)N[C@@H](Cc1c[nH]cn1)C(=O)N[C@@H](Cc1ccc(O)cc1)C(=O)N[C@@H](Cc1ccc(O)cc1)C(=O)N[C@@H](CC(N)=O)C(=O)N[C@@H](Cc1c[nH]c2ccccc12)C(=O)N[C@@H](CC(C)C)C(=O)N[C@H](C(=O)N[C@@H](CCCNC(=N)N)C(=O)N[C@@H](CCC(N)=O)C(=O)N[C@@H](CCCNC(=N)N)C(=O)N[C@@H](Cc1ccc(O)cc1)C(N)=O)[C@@H](C)O)C(C)C"}},
  "note": "*1 amine or outer side, *2 acyl side, *3 side chain or, on linkers, in order; H or OH if unused. Side-chain parts run from the residue outwards. The star is where a group is joined. C18 diacid = O=C(O)CCCCCCCCCCCCCCCCC(=O)*; γGlu = O=C(O)[C@H](CCC(=O)[*:2])N[*:1]; Isovaleryl = CC(C)CC(=O)*; Ahx = NCCCCCC(=O)O",
  "data": [
    {"target": "T1, human NPY2 receptor (human, UniProt P49146 1-381)", "T1 construct": "whole, on cells; also called hNPY2-R; hNPY2R", "T1 sequence (looked up)": "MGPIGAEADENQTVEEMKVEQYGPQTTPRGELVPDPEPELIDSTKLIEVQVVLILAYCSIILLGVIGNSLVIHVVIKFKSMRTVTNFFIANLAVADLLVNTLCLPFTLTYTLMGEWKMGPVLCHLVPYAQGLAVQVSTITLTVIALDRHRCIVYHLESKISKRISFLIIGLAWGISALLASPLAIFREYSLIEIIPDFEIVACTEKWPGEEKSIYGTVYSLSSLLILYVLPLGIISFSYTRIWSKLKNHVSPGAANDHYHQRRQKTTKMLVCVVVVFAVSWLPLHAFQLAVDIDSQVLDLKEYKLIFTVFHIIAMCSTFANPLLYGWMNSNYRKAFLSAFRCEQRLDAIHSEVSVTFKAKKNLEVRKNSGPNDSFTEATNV", "assay": "RLB: displacement of 125I-PYY(1-36) from hNPY2R membranes", "units": {"Ki": "nM"}, "values": [
      {"binder": "B1", "Ki": 5.29},
      {"binder": "B2", "Ki": 18.8},
      {"binder": "B3", "Ki": 5.04},
      {"binder": "B4", "Ki": 8.93},
      {"binder": "B5", "Ki": 0.81}
    ]},
    {"target": "T2, human NPY5 receptor (human, UniProt Q15761 1-445)", "T2 sequence (looked up)": "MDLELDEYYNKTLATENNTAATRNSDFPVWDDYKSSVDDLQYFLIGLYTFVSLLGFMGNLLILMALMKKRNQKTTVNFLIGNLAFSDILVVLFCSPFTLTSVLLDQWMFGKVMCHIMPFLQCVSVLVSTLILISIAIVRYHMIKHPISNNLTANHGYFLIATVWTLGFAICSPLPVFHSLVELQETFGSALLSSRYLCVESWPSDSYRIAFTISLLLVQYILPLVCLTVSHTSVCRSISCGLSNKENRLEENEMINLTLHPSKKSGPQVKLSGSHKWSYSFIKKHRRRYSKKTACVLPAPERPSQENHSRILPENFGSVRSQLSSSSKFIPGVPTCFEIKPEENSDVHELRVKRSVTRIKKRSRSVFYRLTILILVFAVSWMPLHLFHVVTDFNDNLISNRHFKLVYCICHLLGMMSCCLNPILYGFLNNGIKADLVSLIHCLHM", "assay": "cell-based or functional assay", "units": {"EC50, HTRF cAMP Gi assay": "µM"}, "values": [
      {"binder": "B1", "EC50, HTRF cAMP Gi assay": "> 5"},
      {"binder": "B2", "EC50, HTRF cAMP Gi assay": "> 5"},
      {"binder": "B3", "EC50, HTRF cAMP Gi assay": "> 5"},
      {"binder": "B4", "EC50, HTRF cAMP Gi assay": "> 5"},
      {"binder": "B5", "EC50, HTRF cAMP Gi assay": "> 5"}
    ]},
    {"target": "T1, human NPY2 receptor", "assay": "cell-based or functional assay", "units": {"EC50, HTRF cAMP Gi assay": "nM"}, "values": [
      {"binder": "B1", "EC50, HTRF cAMP Gi assay": 0.118},
      {"binder": "B2", "EC50, HTRF cAMP Gi assay": 0.447},
      {"binder": "B3", "EC50, HTRF cAMP Gi assay": 0.146},
      {"binder": "B4", "EC50, HTRF cAMP Gi assay": 0.13},
      {"binder": "B5", "EC50, HTRF cAMP Gi assay": 0.079}
    ]}
  ]
}
